Numbered stars: 1 amine (or outer) side, 2 acyl side, 3 side chain; on linkers, the order of the positions; unused ones are H or OH. Bridge positions count the residues as written; N and C are the ends. Square brackets hold non-standard residues; d marks the D form. Primed or numbered codes have the meaning given here. Ends that are not written are not given here. TTDS = 1,13-diamino-4,7,10-trioxatridecan-succinamic acid, O=C(CCC(=O)[*:2])NCCCOCCOCCOCCCN[*:1]; Oic = O=C(O)[C@@H]1C[C@@H]2CCCC[C@@H]2N1; Pro‑D2″ = L-Proline (3,4-2H), deuterated; PEG6 = NCCOCCOCCOCCOCCOCCOCCC(=O)O; tBuAla = CC(C)(C)C[C@H](N)C(=O)O; PEG5 = NCCOCCOCCOCCOCCOCCC(=O)O; Pen = CC(C)(S)[C@H](N)C(=O)O; NMeA = CN[C@@H](C)C(=O)O; Orn = NCCC[C@H](N)C(=O)O; Abu = CC[C@H](N)C(=O)O; Sar = CNCC(=O)O
T1: recombinant human MASP1 active protease (amino acids 297-699, C-terminal His Tag) (human, UniProt P48740 297-699)
T1 sequence: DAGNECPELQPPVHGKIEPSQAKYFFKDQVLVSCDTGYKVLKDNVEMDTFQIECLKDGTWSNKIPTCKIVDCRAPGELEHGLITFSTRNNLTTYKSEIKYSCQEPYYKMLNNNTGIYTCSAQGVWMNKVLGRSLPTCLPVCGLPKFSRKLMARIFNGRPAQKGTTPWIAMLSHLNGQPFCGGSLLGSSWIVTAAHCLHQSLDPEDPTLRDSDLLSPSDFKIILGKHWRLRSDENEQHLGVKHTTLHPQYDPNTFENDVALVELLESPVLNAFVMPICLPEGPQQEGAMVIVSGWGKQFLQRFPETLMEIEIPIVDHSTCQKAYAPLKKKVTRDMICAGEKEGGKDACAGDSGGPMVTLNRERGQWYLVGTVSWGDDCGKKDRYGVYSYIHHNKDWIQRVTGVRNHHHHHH


Columns and labels:
[1] = target: T1, recombinant human MASP1 active protease …; test: cell-based or functional assay
[2] = target: recombinant human MASP2 active protease (amino acids 297-686, C-terminal His Tag) (human, UniProt O00187 297-686); test: cell-based or functional assay
Chain of recombinant human MASP2 active protease (amino acids 297-686, C-terminal His Tag) (O00187 other isoform, or with tags, fused parts or gaps limits assumed): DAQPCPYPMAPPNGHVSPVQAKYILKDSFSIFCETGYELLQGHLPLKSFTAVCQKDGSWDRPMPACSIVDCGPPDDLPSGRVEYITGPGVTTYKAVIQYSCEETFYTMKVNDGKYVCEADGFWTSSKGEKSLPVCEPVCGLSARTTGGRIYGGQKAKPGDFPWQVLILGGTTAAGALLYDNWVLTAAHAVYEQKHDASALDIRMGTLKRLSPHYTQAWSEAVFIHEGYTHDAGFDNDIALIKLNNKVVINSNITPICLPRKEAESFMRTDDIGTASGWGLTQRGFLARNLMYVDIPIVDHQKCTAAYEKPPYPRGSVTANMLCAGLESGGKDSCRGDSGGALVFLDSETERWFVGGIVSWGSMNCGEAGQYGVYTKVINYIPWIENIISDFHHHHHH

Binder | human MASP1 IC50 [1] [nM] | human MASP2 IC50 [2] [nM]
[Sar]ICSRS[tBuAla]PPI[Pen]IP[PEG5]-NH2 (disulfide 3-11; N-terminus assumed; SMILES CC[C@H](C)[C@H](NC(=O)CNC)C(=O)N[C@H]1CSSC(C)(C)[C@@H](C(=O)N[C@H](C(=O)N2CCC[C@H]2C(=O)NCCOCCOCCOCCOCCOCCC(N)=O)[C@@H](C)CC)NC(=O)[C@H]([C@@H](C)CC)NC(=O)[C@@H]2CCCN2C(=O)[C@@H]2CCCN2C(=O)[C@H](CC(C)(C)C)NC(=O)[C@H](CO)NC(=O)[C@H](CCCNC(=N)N)NC(=O)[C@H](CO)NC1=O) [((N-Me)G)-IC+SRS-((tBu)A)-PPI-(Pen)+IP-(PEG4(19 atoms))-NH2] | 3.6 | 60
[NMeA]ICSRSLP[Oic]I[Pen]IPE-NH2 (disulfide 3-11; N-terminus assumed; SMILES CC[C@H](C)[C@H](NC(=O)[C@H](C)NC)C(=O)N[C@H]1CSSC(C)(C)[C@@H](C(=O)N[C@H](C(=O)N2CCC[C@H]2C(=O)N[C@@H](CCC(=O)O)C(N)=O)[C@@H](C)CC)NC(=O)[C@H]([C@@H](C)CC)NC(=O)[C@@H]2C[C@@H]3CCCC[C@@H]3N2C(=O)[C@@H]2CCCN2C(=O)[C@H](CC(C)C)NC(=O)[C@H](CO)NC(=O)[C@H](CCCNC(=N)N)NC(=O)[C@H](CO)NC1=O) [((N-Me)A)-IC+SRSLP-(Oic)-I-(Pen)+IPE-NH2] | 3.3 | 200
[NMeA]ICSRSLP[Oic]I[Pen]IP-NH2 (disulfide 3-11; N-terminus assumed; SMILES CC[C@H](C)[C@H](NC(=O)[C@H](C)NC)C(=O)N[C@H]1CSSC(C)(C)[C@@H](C(=O)N[C@H](C(=O)N2CCC[C@H]2C(N)=O)[C@@H](C)CC)NC(=O)[C@H]([C@@H](C)CC)NC(=O)[C@@H]2C[C@@H]3CCCC[C@@H]3N2C(=O)[C@@H]2CCCN2C(=O)[C@H](CC(C)C)NC(=O)[C@H](CO)NC(=O)[C@H](CCCNC(=N)N)NC(=O)[C@H](CO)NC1=O) [((N-Me)A)-IC+SRSLP-(Oic)-I-(Pen)+IP-NH2] | 3.4 | 99
[Sar]ICSRSLP[Oic]I[Pen]IP[PEG6]-NH2 (disulfide 3-11; N-terminus assumed; SMILES CC[C@H](C)[C@H](NC(=O)CNC)C(=O)N[C@H]1CSSC(C)(C)[C@@H](C(=O)N[C@H](C(=O)N2CCC[C@H]2C(=O)NCCOCCOCCOCCOCCOCCOCCC(N)=O)[C@@H](C)CC)NC(=O)[C@H]([C@@H](C)CC)NC(=O)[C@@H]2C[C@@H]3CCCC[C@@H]3N2C(=O)[C@@H]2CCCN2C(=O)[C@H](CC(C)C)NC(=O)[C@H](CO)NC(=O)[C@H](CCCNC(=N)N)NC(=O)[C@H](CO)NC1=O) [((N-Me)G)-IC+SRSLP-(Oic)-I-(Pen)+IP-(PEG5(22 atoms))-NH2] | 3.5 | 90
[2‑(Piperidin)acetyl]ICSRS[tBuAla]PPI[Pen]IPD-NH2 (disulfide 3-11) [(2-(Piperidin)acetyl)-IC+SRS-((tBu)A)-PPI-(Pen)+IPD-NH2] | 3.3 | 71
[Sar]ICSRSLP[Oic]I[Pen]IP[TTDS]-NH2 (disulfide 3-11; N-terminus assumed; SMILES CC[C@H](C)[C@H](NC(=O)CNC)C(=O)N[C@H]1CSSC(C)(C)[C@@H](C(=O)N[C@H](C(=O)N2CCC[C@H]2C(=O)NCCCOCCOCCOCCCNC(=O)CCC(N)=O)[C@@H](C)CC)NC(=O)[C@H]([C@@H](C)CC)NC(=O)[C@@H]2C[C@@H]3CCCC[C@@H]3N2C(=O)[C@@H]2CCCN2C(=O)[C@H](CC(C)C)NC(=O)[C@H](CO)NC(=O)[C@H](CCCNC(=N)N)NC(=O)[C@H](CO)NC1=O) [((N-Me)G)-IC+SRSLP-(Oic)-I-(Pen)+IP-(TTDS)-NH2] | 3.4 | 87
[NMeA]ICSRSLP[Oic]I[Pen]IPQ-NH2 (disulfide 3-11; N-terminus assumed; SMILES CC[C@H](C)[C@H](NC(=O)[C@H](C)NC)C(=O)N[C@H]1CSSC(C)(C)[C@@H](C(=O)N[C@H](C(=O)N2CCC[C@H]2C(=O)N[C@@H](CCC(N)=O)C(N)=O)[C@@H](C)CC)NC(=O)[C@H]([C@@H](C)CC)NC(=O)[C@@H]2C[C@@H]3CCCC[C@@H]3N2C(=O)[C@@H]2CCCN2C(=O)[C@H](CC(C)C)NC(=O)[C@H](CO)NC(=O)[C@H](CCCNC(=N)N)NC(=O)[C@H](CO)NC1=O) [((N-Me)A)-IC+SRSLP-(Oic)-I-(Pen)+IPQ-NH2] | 3.5 | 190
[2‑(Diethylamino)acetyl]ICSRS[tBuAla]PPI[Pen]IPD-NH2 (disulfide 3-11) [(2-(Diethylamino)acetyl)-IC+SRS-((tBu)A)-PPI-(Pen)+IPD-NH2] | 3.5 | 98
[NMeA]ICSRSLP[Oic]I[Pen]I-OH (disulfide 3-11; N-terminus assumed; SMILES CC[C@H](C)[C@H](NC(=O)[C@H]1NC(=O)[C@H]([C@@H](C)CC)NC(=O)[C@@H]2C[C@@H]3CCCC[C@@H]3N2C(=O)[C@@H]2CCCN2C(=O)[C@H](CC(C)C)NC(=O)[C@H](CO)NC(=O)[C@H](CCCNC(=N)N)NC(=O)[C@H](CO)NC(=O)[C@@H](NC(=O)[C@@H](NC(=O)[C@H](C)NC)[C@@H](C)CC)CSSC1(C)C)C(=O)O) [((N-Me)A)-IC+SRSLP-(Oic)-I-(Pen)+I-OH] | 3.4 | 410

The next lines start with the values.

human MASP1 IC50 [1] [nM] | human MASP2 IC50 [2] [nM] | Binder
3.7 | 68 | A[Abu]CSRS[tBuAla]PPI[Pen]IPD-NH2 (disulfide 3-11; N-terminus assumed; SMILES CC[C@H](NC(=O)[C@H](C)N)C(=O)N[C@H]1CSSC(C)(C)[C@@H](C(=O)N[C@H](C(=O)N2CCC[C@H]2C(=O)N[C@@H](CC(=O)O)C(N)=O)[C@@H](C)CC)NC(=O)[C@H]([C@@H](C)CC)NC(=O)[C@@H]2CCCN2C(=O)[C@@H]2CCCN2C(=O)[C@H](CC(C)(C)C)NC(=O)[C@H](CO)NC(=O)[C@H](CCCNC(=N)N)NC(=O)[C@H](CO)NC1=O) [A-(Abu)-C+SRS-((tBu)A)-PPI-(Pen)+IPD-NH2]
2.13 | 126 | AICSRSL[Pro‑D2″][Oic]I[Pen]IPD-OH (disulfide 3-11) [AIC+SRSL-(Pro-D2)-(Oic)-I-(Pen)+IPD-OH]
3.6 | 130 | [Orn]ICSRS[tBuAla]PPI[Pen]IP-OH (disulfide 3-11; N-terminus assumed; SMILES CC[C@H](C)[C@H](NC(=O)[C@@H](N)CCCN)C(=O)N[C@H]1CSSC(C)(C)[C@@H](C(=O)N[C@H](C(=O)N2CCC[C@H]2C(=O)O)[C@@H](C)CC)NC(=O)[C@H]([C@@H](C)CC)NC(=O)[C@@H]2CCCN2C(=O)[C@@H]2CCCN2C(=O)[C@H](CC(C)(C)C)NC(=O)[C@H](CO)NC(=O)[C@H](CCCNC(=N)N)NC(=O)[C@H](CO)NC1=O) [(Orn)-IC+SRS-((tBu)A)-PPI-(Pen)+IP-OH]
3.3 | 140 | AICSRSLP[Oic]I[Pen]IPQ-NH2 (disulfide 3-11; N-terminus assumed; SMILES CC[C@H](C)[C@H](NC(=O)[C@H](C)N)C(=O)N[C@H]1CSSC(C)(C)[C@@H](C(=O)N[C@H](C(=O)N2CCC[C@H]2C(=O)N[C@@H](CCC(N)=O)C(N)=O)[C@@H](C)CC)NC(=O)[C@H]([C@@H](C)CC)NC(=O)[C@@H]2C[C@@H]3CCCC[C@@H]3N2C(=O)[C@@H]2CCCN2C(=O)[C@H](CC(C)C)NC(=O)[C@H](CO)NC(=O)[C@H](CCCNC(=N)N)NC(=O)[C@H](CO)NC1=O) [AIC+SRSLP-(Oic)-I-(Pen)+IPQ-NH2]
3.6 | 74.5 | TICSRS[tBuAla]PPI[Pen]IPD-NH2 (disulfide 3-11; N-terminus assumed; SMILES CC[C@H](C)[C@H](NC(=O)[C@@H](N)[C@@H](C)O)C(=O)N[C@H]1CSSC(C)(C)[C@@H](C(=O)N[C@H](C(=O)N2CCC[C@H]2C(=O)N[C@@H](CC(=O)O)C(N)=O)[C@@H](C)CC)NC(=O)[C@H]([C@@H](C)CC)NC(=O)[C@@H]2CCCN2C(=O)[C@@H]2CCCN2C(=O)[C@H](CC(C)(C)C)NC(=O)[C@H](CO)NC(=O)[C@H](CCCNC(=N)N)NC(=O)[C@H](CO)NC1=O) [TIC+SRS-((tBu)A)-PPI-(Pen)+IPD-NH2]
3.5 | 140 | AICSRSLP[Oic]I[Pen]IPE-OH (disulfide 3-11; N-terminus assumed; SMILES CC[C@H](C)[C@H](NC(=O)[C@H](C)N)C(=O)N[C@H]1CSSC(C)(C)[C@@H](C(=O)N[C@H](C(=O)N2CCC[C@H]2C(=O)N[C@@H](CCC(=O)O)C(=O)O)[C@@H](C)CC)NC(=O)[C@H]([C@@H](C)CC)NC(=O)[C@@H]2C[C@@H]3CCCC[C@@H]3N2C(=O)[C@@H]2CCCN2C(=O)[C@H](CC(C)C)NC(=O)[C@H](CO)NC(=O)[C@H](CCCNC(=N)N)NC(=O)[C@H](CO)NC1=O) [AIC+SRSLP-(Oic)-I-(Pen)+IPE-OH]
1.2 | 37 | AICSRS[tBuAla]PPI[Pen]IPD-OH (disulfide 3-11; N-terminus assumed; SMILES CC[C@H](C)[C@H](NC(=O)[C@H](C)N)C(=O)N[C@H]1CSSC(C)(C)[C@@H](C(=O)N[C@H](C(=O)N2CCC[C@H]2C(=O)N[C@@H](CC(=O)O)C(=O)O)[C@@H](C)CC)NC(=O)[C@H]([C@@H](C)CC)NC(=O)[C@@H]2CCCN2C(=O)[C@@H]2CCCN2C(=O)[C@H](CC(C)(C)C)NC(=O)[C@H](CO)NC(=O)[C@H](CCCNC(=N)N)NC(=O)[C@H](CO)NC1=O) [AIC+SRS-((tBu)A)-PPI-(Pen)+IPD-OH]

From patent US20210246166A1 (Bayer, published 2021)
